Measured values published in publication PMC9133142 (Cell chemical biology, 2022).

B1: mAb ZV-67 (antibody, V domains shown)
VH: QAQLQQSGTGLARPGASVKLSCKASGYTFTSYGISWVTQRAGQGLEWIGVIYPRSGNTYYNEKFRGKATLTADKSSSSAYMELRGLTAEDSAVYFCARENYGSVYWGQGTTLTVSS
VL: DIVMTQSQKFMSTSVGDRVSITCKASQNVGTAVAWYQQKPGQSPKLLIYSASNRYTGVPDRFTGSGSGTDFTLTISNMQSEDLADYFCQQFSSYPYTFGGGTKLEIK
B2: mAb ZV-2 (antibody, V domains shown)
VH: QVQLQESGAELMKPGASVKLSCKTSGYTFIGYWIEWLKQRPGHGLEWVGEIFPGSGRTKYNEKFKGRATFTADTSSNMAYMQLSSLTTEDSAIYYCARYYYGSYYALDYWGQGTSVTVSS
VL: DIVMTQSPSSLSVSAGEKVTLSCKSSQSLLHSGNQKNYLAWYQQKPGQAPKLLIYGASTRESGVPDRFTGSGSGTDFTLTISSVQAEDLAVYYCQNDHSYPLTFGAGTKLELK

Tests used:
[1] = molecular target: ZDIII-WT, soluble purified protein with C-terminal SpyTag (Zika virus H/PF/2013, UniProt A0A024B7W1); assay: ELISA
[2] = molecular target: ZDIII-WT as used in BLI (taken as the His6-MBP-ZDIII-WT fusion protein) (Zika virus H/PF/2013, UniProt A0A024B7W1); assay: BLI
[3] = molecular target: MBP alone (negative control in BLI) (Escherichia coli K12, UniProt P0AEX9 = MBP); assay: BLI

Chain of UniProt A0A024B7W1 (A0A024B7W1 whole entry, looked up, the tested form may be a part): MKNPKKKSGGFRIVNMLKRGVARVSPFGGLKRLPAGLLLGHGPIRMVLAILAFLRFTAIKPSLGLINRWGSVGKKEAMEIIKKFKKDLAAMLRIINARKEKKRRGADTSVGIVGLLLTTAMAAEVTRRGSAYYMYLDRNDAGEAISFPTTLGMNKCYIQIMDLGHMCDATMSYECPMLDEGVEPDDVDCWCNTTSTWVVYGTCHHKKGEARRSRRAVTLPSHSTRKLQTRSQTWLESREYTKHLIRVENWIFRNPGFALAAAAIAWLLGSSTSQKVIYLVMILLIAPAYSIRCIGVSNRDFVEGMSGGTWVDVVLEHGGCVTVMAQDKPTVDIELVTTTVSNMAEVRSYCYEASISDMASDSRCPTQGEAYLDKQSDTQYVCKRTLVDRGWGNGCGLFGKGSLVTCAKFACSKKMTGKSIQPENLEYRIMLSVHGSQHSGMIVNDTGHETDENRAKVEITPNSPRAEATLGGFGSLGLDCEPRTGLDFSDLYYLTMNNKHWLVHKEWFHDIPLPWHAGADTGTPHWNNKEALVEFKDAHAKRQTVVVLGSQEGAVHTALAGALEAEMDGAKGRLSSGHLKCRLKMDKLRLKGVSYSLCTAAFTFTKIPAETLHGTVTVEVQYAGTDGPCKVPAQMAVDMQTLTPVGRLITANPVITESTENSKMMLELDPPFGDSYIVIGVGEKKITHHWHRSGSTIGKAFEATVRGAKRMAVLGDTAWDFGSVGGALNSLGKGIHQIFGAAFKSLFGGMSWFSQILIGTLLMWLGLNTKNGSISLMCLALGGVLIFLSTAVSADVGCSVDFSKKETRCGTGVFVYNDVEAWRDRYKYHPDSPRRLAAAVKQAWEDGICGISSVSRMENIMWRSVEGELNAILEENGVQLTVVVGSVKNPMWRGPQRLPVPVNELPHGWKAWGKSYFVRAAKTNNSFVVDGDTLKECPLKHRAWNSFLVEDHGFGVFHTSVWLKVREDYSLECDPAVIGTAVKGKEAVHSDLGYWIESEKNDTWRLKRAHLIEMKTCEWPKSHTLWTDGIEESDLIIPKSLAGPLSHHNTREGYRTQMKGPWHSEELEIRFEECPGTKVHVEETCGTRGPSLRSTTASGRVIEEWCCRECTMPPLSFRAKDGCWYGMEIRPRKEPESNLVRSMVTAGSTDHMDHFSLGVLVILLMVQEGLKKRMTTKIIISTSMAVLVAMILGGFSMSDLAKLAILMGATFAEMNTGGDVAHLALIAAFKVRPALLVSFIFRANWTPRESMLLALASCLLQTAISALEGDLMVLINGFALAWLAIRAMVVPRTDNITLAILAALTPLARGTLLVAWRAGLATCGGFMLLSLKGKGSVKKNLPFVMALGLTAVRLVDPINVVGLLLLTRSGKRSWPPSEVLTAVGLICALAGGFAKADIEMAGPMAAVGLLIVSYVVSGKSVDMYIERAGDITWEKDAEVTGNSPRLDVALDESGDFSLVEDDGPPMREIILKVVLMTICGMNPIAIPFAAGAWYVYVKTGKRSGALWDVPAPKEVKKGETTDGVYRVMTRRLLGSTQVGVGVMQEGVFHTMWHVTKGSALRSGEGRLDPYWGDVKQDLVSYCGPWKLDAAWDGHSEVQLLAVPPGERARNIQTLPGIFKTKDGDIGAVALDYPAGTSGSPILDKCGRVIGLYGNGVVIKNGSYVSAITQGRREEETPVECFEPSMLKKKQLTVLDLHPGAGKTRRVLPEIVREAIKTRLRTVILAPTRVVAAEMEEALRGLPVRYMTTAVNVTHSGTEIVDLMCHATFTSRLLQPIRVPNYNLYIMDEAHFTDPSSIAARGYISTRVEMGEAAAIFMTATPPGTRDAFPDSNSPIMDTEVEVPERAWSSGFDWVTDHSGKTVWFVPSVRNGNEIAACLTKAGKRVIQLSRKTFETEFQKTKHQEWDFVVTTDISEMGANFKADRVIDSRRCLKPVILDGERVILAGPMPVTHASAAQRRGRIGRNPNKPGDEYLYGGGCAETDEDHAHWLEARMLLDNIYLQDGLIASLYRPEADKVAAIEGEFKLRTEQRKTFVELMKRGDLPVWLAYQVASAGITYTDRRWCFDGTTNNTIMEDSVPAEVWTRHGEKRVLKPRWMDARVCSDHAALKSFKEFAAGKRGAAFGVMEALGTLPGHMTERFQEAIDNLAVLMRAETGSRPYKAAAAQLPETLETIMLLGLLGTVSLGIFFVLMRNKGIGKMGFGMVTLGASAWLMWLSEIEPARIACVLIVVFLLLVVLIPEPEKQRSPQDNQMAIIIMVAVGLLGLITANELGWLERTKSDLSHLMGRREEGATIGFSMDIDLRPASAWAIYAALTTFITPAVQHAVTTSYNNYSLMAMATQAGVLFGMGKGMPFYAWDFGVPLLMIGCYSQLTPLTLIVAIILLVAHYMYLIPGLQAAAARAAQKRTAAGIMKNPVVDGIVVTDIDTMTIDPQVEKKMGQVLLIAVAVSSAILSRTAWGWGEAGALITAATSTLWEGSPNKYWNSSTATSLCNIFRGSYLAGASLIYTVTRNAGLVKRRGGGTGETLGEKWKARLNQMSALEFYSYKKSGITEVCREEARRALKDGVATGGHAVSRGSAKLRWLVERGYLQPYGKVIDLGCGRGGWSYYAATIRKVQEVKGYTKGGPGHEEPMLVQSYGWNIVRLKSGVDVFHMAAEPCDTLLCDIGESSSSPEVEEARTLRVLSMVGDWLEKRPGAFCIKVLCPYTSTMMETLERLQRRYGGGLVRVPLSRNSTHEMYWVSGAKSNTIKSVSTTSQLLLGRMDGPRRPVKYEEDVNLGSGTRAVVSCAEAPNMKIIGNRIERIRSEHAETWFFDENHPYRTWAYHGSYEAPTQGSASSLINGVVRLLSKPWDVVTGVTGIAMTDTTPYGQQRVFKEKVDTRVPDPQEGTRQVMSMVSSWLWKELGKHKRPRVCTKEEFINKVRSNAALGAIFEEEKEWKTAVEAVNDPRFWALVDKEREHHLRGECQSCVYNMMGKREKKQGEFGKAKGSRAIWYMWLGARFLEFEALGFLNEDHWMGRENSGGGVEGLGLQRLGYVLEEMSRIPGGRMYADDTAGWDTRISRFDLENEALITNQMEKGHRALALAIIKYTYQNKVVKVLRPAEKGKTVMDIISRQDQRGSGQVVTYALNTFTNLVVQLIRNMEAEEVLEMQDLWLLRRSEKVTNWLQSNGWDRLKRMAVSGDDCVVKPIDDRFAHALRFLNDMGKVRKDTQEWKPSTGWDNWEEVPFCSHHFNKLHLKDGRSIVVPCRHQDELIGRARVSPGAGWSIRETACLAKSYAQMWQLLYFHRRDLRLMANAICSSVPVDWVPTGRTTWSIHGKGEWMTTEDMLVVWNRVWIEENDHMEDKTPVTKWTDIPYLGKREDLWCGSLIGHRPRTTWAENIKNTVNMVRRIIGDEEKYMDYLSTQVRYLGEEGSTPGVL

Binder	EC50 [1] [nM]	Kd [2] [nM]	binding result [3]
B1	14	43 ± 1.1	no binding
B2		10.7 ± 0.09	no binding
